The target in assay [1] is recombinant extracellular alpha-3 domain of MICA (allele 001), His-tagged, Baculovirus/Sf9 expressed (human) (UniProt Q29983). As to the kind of experiment: Bio-Layer Interferometry (Octet RED96), antibody captured by anti-mouse IgG, antigen in solution, pH 7.4, 1:1 model. Background: Biolayer interferometry detects binding as a change in optical thickness at a sensor tip.

Assay [2] deals with soluble MICB (sMICB) shed from prostate cancer DU-145 cells (human) (UniProt Q29980). The assay can be described thus: subtractive immunoprecipitation from DU-145 conditioned medium with antibody on Protein G beads, remaining sMICB by MICB ELISA, against isotype controls. In general terms: An ELISA detects its analyte on a solid surface through an enzyme-linked reagent.
For assay [3], the target named is T1, recombinant extracellular alpha-3 domain of MICA (allele 001), His-tagged, Baculovirus/Sf9 expressed (human, UniProt Q29983 205-297).
T1 construct: also called MICA alpha-3 recombinant antigen; alpha-3 domain MICA immunogen
T1 sequence: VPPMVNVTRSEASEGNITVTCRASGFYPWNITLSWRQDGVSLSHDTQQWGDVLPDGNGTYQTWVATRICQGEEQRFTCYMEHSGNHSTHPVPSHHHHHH
The assay can be described thus: Bio-Layer Interferometry (Octet RED96), antibody captured by anti-mouse IgG, antigen in solution, pH 7.4, 1:1 model. Here is the method: Biomolecular interactions between MICA alpha-3 recombinant antigen and test antibody were directly measured by Bio-Layer Interferometry (BLI) using a Pall ForteBio Octet RED96 machine (Pall ForteBio, CA, USA). Real-time kinetic analyses were performed on the test MICA monoclonal antibody 5C9, as well as two control antibodies, one of which could bind the alpha-3 MICA subdomain antigen (positive control) and one of which could not (negative control), as previously determined by ELISA. The Octet RED96 apparatus operates under the principle of Bio-Layer Interferometry, a label-free technique that measures molecular interactions and complex formation. A key component of the technique is the optical biosensor whose tip is immersed in the fluids of the test well and then used to assay interference patterns between waves of light. Here, the ligand (monoclonal antibody) is localized to the surface of the biosensor through capture by previously bound anti-mouse IgG, while the analyte biomolecule (antigen) is kept in solution. Binding responses between ligand and analyte were measured and reported in real-time. Both association and dissociation kinetics were monitored and KD values were calculated. This model assumed a 1:1 interaction of ligand to analyte.

Chain of soluble MICB (sMICB) shed from prostate cancer DU-145 cells (human) (Q29980 23-309): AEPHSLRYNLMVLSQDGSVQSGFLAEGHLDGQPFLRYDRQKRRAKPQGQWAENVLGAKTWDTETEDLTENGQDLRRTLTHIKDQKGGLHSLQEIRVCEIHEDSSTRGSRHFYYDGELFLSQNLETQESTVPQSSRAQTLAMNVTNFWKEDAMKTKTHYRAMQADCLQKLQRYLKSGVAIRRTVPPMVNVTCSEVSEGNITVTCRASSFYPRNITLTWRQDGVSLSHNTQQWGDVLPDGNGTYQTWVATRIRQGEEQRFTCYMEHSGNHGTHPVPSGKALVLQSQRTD

Regarding “BAMO3, MIC alpha-3 specific murine IgG2a monoclonal antibody (MBL International)”, in assay [1], the Kd (as a rule, a measure of binding affinity in units of concentration) amounted to 6 nM. For the same molecule, the reduction of the amount of sMICB in the sample in assay [2] was found to be 83%.
On to “negative control antibody of the Bio-Layer Interferometry analysis”, for which the Kd in assay [1] turned out to be 9600 nM.

B1: monoclonal antibody 5C9 (antibody, V domains shown)
VH: QVQLQQSGAELVRPGTSVKVSCKASGYAFTNYLIEWVKQRPGQGLEWIGLIYPGSGGTNYNEKFKGKATLTADKSSSTAYMQLSSLTSDDSAVYFCARIYYGNRDYGMDYWGQGTSVTVSS
VL: MTQTPLSLPVSLGDQASISCRSSQSIVHSNGNTYLEWYLQKPGQSPKLLIYKVSNRFSGVPDRFSGSGSGTDFTLKISRVEAEDLGVYYCFQGSHVPFTFGSGTKLEIK
notes: Mouse hybridoma antibody; Used as hybridoma supernatant in the screening and immunoprecipitation assays; also called mAb 5C9; antibody from hybridoma clone 5C9
As to B1, the Kd in assay [3] is roughly 3.3 nM.

(Values after patent publication US20190248901A1 (NOVELOGICS BIOTECHNOLOGY, published 2019).)
